Data taken from patent US11421026B2, “Antibodies that bind human cannabinoid 1 (CB1) receptor” (BIRD ROCK BIO, Inc., priority 2015, dated 2022).

How the values were obtained:
[1] = molecular target: T1, human CB2 (TRex CHO cells) (Homo sapiens, UniProt P34972); assay: Flow cytometry selectivity versus human CB2; type: binding
T1 construct: expressed in transfected cells
Experimental: (§1) To further assess TRex CHO parental cells, TRex CHO A56 overexpressed CB1, Native human CB1 TRex CHO A156, 5HT2B, Mouse CB1 and human CB2 were used to examine the specificity of IgG binding. 100 μl of 1×10^6 cells/ml of cells were incubated with primary antibody IgGs in 3-fold serial dilutions starting from 1 μM to 0.5 nM for 30 minutes on ice. After being washed with 200 μl of FACS buffer twice, cells were incubated with secondary antibody for 30 minutes on ice. Cells were washed with 200 μl of FACS buffer twice and transferred to BD Falcon 5 ml tube and analyzed by FACS.
(§2) Santa Cruz anti-CB1 rabbit polyclonal antibody and secondary antibody FITC conjugated anti-rabbit were used to detect the expression of mouse CB1. R&D mouse monoclonal anti-CB2 and human IgG P2C2 were used to confirm the expression of CB2 and 5HT2B respectively. Both anti-mouse and anti-human secondary antibodies were PE-conjugated.
(§3) For selected binders, full binding curves were generated on CB1 receptor by testing a range of concentrations. Three-fold serial dilutions from 1 μM to […] were prepared. Selectivity was determined by measuring binding to cells expressing 5HT2B or CB2, relative to binding to A156 (native human CB1 receptor expressing) or A56 (overexpressed—CB1 receptor with the T210A modification and ICL3 replacement with fusion partner) by flow cytometry. As shown in FIG. 2C and FIG. 2D, the expression of CB2 and 5HT2B was confirmed using mouse monoclonal anti-CB2 and P2C2 human IgG to confirm CB2 and 5HT2B expression, respectively. PE-conjugated anti-mouse (for detection of anti-CB2) and PE conjugated anti-human antibodies were used to detect CB2 and 5HT2B, respectively.
The binding affinity, cross-reactivity and specificity of humanized P1C4 antibodies were determined by flow cytometry with TRex CHO parental cells, TRex CHO A56 overexpressed CB1 cells (T210A/fusion partner), native human CB1 TRex CHO A156 cells, Trex parental (no CB1) cells, mouse CB1 cells, and human CB2 stable cells. […] After being washed with 200 μl of FACS buffer twice, cells were incubated with PE conjugated anti-human secondary antibody (Southern Biotech) for 30 minutes on ice. Cells were washed with 200 μl of FACS buffer twice and transferred to BD Falcon 5 ml tube and analyzed by flow cytometry (BD FACScalibur).
Binding selectivity and cross-reactivity of PA13R3-P1C4 and its humanized variants was also characterized by flow cytometry using TRex CHO cells stably transfected with the GPCRs of interest. Specifically, binding selectivity for CB1 over CB2 was determined. Cross reactivity to mouse CB1 was also determined. […] Cells were washed with 200 μL FACS buffer twice and analyzed by flow cytometry (Guava). Binding of purified IgG full concentration curves ranging from 1 μM to 1.3 nM was determined. […]

[2] = molecular target: T2, TRex CHO A156 Native human CB1 cells (Homo sapiens, UniProt P21554); assay: Competition assay by FACS; type: binding; conditions: excess competitor; staining IgG at EC80 and EC50
T2 construct: pcDNA4/TO native full length human CB1 receptor construct was transfected into tetracycline inducible system Trex-CHO cells; expressed in transfected cells
Experimental: TRex CHO A156 Native human CB1 cells were used to test whether 36E12B6C2 and P1C4 bind to similar epitopes. Concentrations at EC80 and EC50 of P1C4 and 36E12B6C2 were used for staining. Excess of PA13R3-P1C4 IgG, Fab and 36E12B6C2 were used for competition. 100 μl of 1×10^6 cells/ml of A156 cells were incubated with competitor IgGs for 30 minutes on ice and then staining IgGs were added into the mixture with 30 minutes incubation on ice. After being washed with 200 μl of FACS buffer twice, cells were incubated with secondary antibody for 30 minutes on ice. PE conjugated anti-human and anti-mouse was diluted in 1:200 folds. Cells were washed with 200 μl of FACS buffer twice and transferred to BD Falcon 5 ml tube and analyzed by FACS.

[3] = molecular target: A139 iCAPS (human CB1, ICL3 replaced with BRIL); assay: ELISA binding of IgG/Fab to CB1 iCAPS A139; conditions: IgG and Fab ELISA, Table 8
Experimental: (§4) Purified IgG was tested for binding to purified CB1 receptor (CB1 Conformation Antigen Presenting System (iCAPS)) by ELISA. Non-biotinylated antigens (e.g. empty iCAPS) were coated directly on Maxisorp plates. The primary antibodies were purified IgGs with 1:3 serial dilutions, incubated on the plate for 1 hour. After 3 rounds of washing with PBST, secondary antibodies HRP goat anti-mouse IgG (Abmart) or HRP goat anti-human IgG (Sigma), depending on the species of the IgGs were added and incubated for another hour. The plates were washed three times with PBST, then developed with TMB (Biopanda). HCl was added to the plates to stop the reaction. Absorbance at 450 nm was read on Emax precision microplate reader (Molecular Devices).
(§5) IgG and Fab molecules tested were 36E12B6C2 IgG, 36E12B6C2 Fab, PA13R3-P1C4 IgG, and PA13R3-P1C4 Fab, compared to negative control BRIL binder P1F7 IgG and P1F7 Fab. For IgG antibodies, the secondary antibody used to detect binding was anti-mouse IgG-HRP; for Fabs, the secondary antibody used to detect binding was anti-human IgG-HRP.

[4] = molecular target: A138 iCAPS (human CB1, ICL3 replaced with protein 1 sequence); assay: ELISA binding of IgG/Fab to CB1 iCAPS A138; conditions: IgG and Fab ELISA, Table 8
Experimental: as §4, §5

5HT2B expressing cells = molecular target: T3, 5HT2B expressing cells (Homo sapiens, UniProt P41595); assay: Flow cytometry selectivity versus 5HT2B; type: binding
T3 construct: expressed in transfected cells
Experimental: as §1, §2, §3

T3 sequence (P41595 whole entry): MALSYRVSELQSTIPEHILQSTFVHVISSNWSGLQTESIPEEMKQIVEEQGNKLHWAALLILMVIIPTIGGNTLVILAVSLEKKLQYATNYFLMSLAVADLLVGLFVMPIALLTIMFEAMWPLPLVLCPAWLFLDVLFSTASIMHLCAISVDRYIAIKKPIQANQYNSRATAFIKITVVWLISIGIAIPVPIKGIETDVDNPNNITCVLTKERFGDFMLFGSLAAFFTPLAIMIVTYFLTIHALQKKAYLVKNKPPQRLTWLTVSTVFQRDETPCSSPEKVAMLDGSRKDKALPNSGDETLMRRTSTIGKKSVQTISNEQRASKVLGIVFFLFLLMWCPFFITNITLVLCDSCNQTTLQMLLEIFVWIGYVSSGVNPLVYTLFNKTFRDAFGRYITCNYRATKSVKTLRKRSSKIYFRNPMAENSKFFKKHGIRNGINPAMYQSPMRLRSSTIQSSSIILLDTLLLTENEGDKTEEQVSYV
T2 sequence (P21554 whole entry): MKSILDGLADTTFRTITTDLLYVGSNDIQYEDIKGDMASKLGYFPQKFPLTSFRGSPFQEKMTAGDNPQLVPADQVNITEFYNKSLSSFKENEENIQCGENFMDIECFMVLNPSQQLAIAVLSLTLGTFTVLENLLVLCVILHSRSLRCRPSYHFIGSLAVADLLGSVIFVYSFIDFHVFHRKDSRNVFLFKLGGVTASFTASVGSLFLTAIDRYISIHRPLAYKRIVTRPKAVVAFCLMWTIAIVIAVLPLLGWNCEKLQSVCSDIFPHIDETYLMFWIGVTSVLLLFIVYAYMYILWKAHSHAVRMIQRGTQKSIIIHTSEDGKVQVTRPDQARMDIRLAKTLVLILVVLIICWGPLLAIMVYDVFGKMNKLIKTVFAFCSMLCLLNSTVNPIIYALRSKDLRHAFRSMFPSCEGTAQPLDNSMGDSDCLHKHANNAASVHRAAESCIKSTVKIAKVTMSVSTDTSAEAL
T1 sequence (P34972 whole entry): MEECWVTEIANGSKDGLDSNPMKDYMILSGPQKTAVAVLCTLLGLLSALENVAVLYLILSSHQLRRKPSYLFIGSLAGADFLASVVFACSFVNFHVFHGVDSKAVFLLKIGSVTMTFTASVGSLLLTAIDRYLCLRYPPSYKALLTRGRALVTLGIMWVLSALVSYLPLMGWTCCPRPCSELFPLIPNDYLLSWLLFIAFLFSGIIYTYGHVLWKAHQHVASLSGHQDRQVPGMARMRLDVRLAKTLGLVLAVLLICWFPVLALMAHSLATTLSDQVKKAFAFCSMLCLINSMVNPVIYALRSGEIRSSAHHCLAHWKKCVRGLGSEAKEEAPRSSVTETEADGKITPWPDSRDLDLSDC

B1: PA13R3-P1C4: phage-derived chimeric anti-CB1 IgG; HC variable SEQ ID NO: 2, LC variable SEQ ID NO: 6 (antibody, V domains shown)
VH: EVQLQQSGAELVRPGVSVKISCKASGYEFSYYWMNWVKQRPGQGLEWIGQIYPGDGETKYNGKFKGKATLTADKSSNTAYMQLSSLTSEDSAVYFCARSHGNYLPYWGQGTLVTVSA
VL: DIVLTQSPAIMSASLGERVTMTCTASSSVSSSYLHWYQQKPGSSPKLWIYSTSNLASGVPARFSGSGSGTSYSLTISSMEAEDAATYYCHQYHRSPPTFGAGTKLELK
modifications: PA13R3-P1C4 Heavy chain variable region; PA13R3-P1C4 Light chain variable region
cross-activity with human CB2 [1]: do not have cross-activity | Kd TRexCHO Human CB2 ([1]; Table 10): No binding | competition for CB1 binding [2]: competed with 36E12B6C2 | EC50 [3]: 0.17 nM | EC50 [4]: 0.17 nM | cross-activity with 5ht2b (5HT2B expressing cells): do not have cross-activity

B2: PA13R3-P1C4 Fab: Fab fragment of chimeric PA13R3-P1C4 (antibody, V domains shown)
VH: B1 VH
VL: B1 VL
cross-activity with human CB2 [1]: do not have cross-activity | competition for CB1 binding [2]: competed with 36E12B6C2 | EC50 [3]: 0.27 nM | EC50 [4]: 0.23 nM | cross-activity with 5ht2b (5HT2B expressing cells): do not have cross-activity

B3: 36E12B6C2: hybridoma-derived anti-CB1 mAb; HC variable SEQ ID NO: 18, LC variable SEQ ID NO: 22 (antibody, listed as Mus sp., V domains shown)
VH: QVQLQQSGAELVRPGSSVKISCKASGYEFSYYWMNWVKQRPGQGLQWIGQIYPGDGDTNYNGKFKGKATLTADKSSSTAYMHLTSLTSEDSAVYFCARSGGNPFAFWGQGTLVTVSA
VL: DIQMTQTSSSLSASLGDRVTFSCRASQDISNYLNWYQQKPDGTVKLLIYYTSRLHSGVTSRFRGSGSGTDYSLTISNLEQEDVATYFCQQGHTLPWSFGGGTKLEIK
cross-activity with human CB2 [1]: do not have cross-activity | competition for CB1 binding [2]: could also compete with PA13R3-P1C4 | EC50 [3]: 0.19 nM | EC50 [4]: 0.201 nM | cross-activity with 5ht2b (5HT2B expressing cells): do not have cross-activity
